Square brackets hold non-standard residues; d marks the D form. Ends that are not written are not given here. LTF = trifluoroleucine
Legend:
Type in all cases: physicochemical
[1] = TEM of hydrogel nanofibers; settings: gel after incubation at 4 °C
Protocol: Transmission Electron Microscopy. Transmission electron microscopy (TEM) images were taken with a FEI Talos L120C transmission electron microscope. The supramolecular assembly of Q2 and Q were monitored over the course of 60 and 144 hours, respectively (in correspondence with tube inversion and microrheology). TEM images were taken of the gel at times consistent with when microrheological measurements for Q2 for consistent fibril sizing. Samples were diluted to 50 μM and 3 μL was spotted on Formvar/carbon-coated copper grids followed by 5 μL wash with water, and 3 μL staining with 1% v/v uranyl acetate solution each with incubation times of 1 min. Following imaging, fibrils were sized in ImageJ software (Version 1.52q).
Transmission Electron Microscopy. Transmission electron microscopy (TEM) images were taken with a FEI Talos L120C transmission electron microscope. Samples were diluted to 50 μM and 3 μL was spotted on Formvar/carbon-coated copper grids followed by […] with water, and 3 μL staining with 1% v/v uranyl acetate solution each with incubation times of 1 min. Between steps, filter paper was used to gently wick the grids dry. Following imaging, minimum diameter nanofibers within the physically crosslinked hydrogel were sized in ImageJ software (Version 1.52q).

[2] = Tube inversion concentration-temperature phase diagram; settings: for solubility limit: 50 mM Tris, 500 mM NaCl, pH 8.0; for UCST: at solubility limit, extent of gelation η 0.5
Protocol: Tube Inversion Test. Immediately after concentration to 2 mM, the protein was incubated at 4° C. over the course of two weeks after aliquoting 150 μL into a 2 mL Eppendorf tube. The samples were visually assessed for gelation by inverting the tubes at 12-hour time intervals thereafter, with gelled samples not flowing upon inversion.
Gelation. To study the relative gelation of Q2 as compared to the previously reported coiled-coil hydrogel, Q, protein was successfully expressed (FIG. 24), purified (FIG. 25), and concentrated to 2 mM (1% w/v) in Tris buffer (50 mM Tris, 500 mM NaCl) at pH 8.0. Purity of the protein was measured to be >99% by SDS-PAGE (FIG. 26) and concentration was measured by BCA assay. Immediately following concentration, the gelation process of Q2 was studied using the microrheology assay described previously following incubation at 4° C. Separately, 150 μL samples were aliquoted for tube inversion tests performed after 2 weeks of incubation for visual assessment of gelation over time at 4° C. (FIG. 19a-d) and at concentrations from 1 mM to 3.5 mM with temperatures 5° C. to 25° C. using 0.5 mM and 5° C. step sizes, respectively, to create a matrix-based phase diagram (FIG. 19e). Temperature and concentration ranges were selected based on preliminary tube-inversion testing at high and low ends of the ranges.
Thermoresponsiveness and material strength. UCST behavior of protein hydrogels was assessed by testing […] samples via tube inversion in 2 mL microtubes after incubation for two weeks at various temperatures and concentrations. Temperature conditions were modulated in the range of 5-40° C. The concentration range was modified depending on if precipitation was visually noticeable in the microtube at an earlier concentration, indicating a solubility limit to our phase diagram, as has been done previously. […] As done with Q2, the UCST of the hydrogels was determined using a bivariate linear relationship for the extent of gelation where tubes that passed gelation by tube inversion were assigned a value of 1 (shown in black in FIG. 52a and FIG. 64a-d) and tubes that failed gelation by tube inversion (shown in red in FIG. 52a and FIG. 64a-d) were assigned a value of 0. The heatmap in FIG. 52a and FIG. 64a-d was used to denote the range of extent of gelation where the equation was employed to solve for the UCST using the solubility limit and solving for an extent of gelation, η, value of 0.5. The UCSTs (FIG. 52b) for the hydrogels studied here were 13.0° C., 35.9° C., 33.6° C., 17.5° C., and 22.9° C. for Q3-7, respectively, as compared to 17.0° C. for Q and 22.0° C. for Q2 found previously. Bivariate regression allowed for solving the coefficients for the dependence of temperature and concentration on gelation.
Tube Inversion. Binary sol-gel behavior was assessed using tube inversion. Immediately after concentration to 2 mM, 150 μL of Q hydrogel variants were incubated in 2 mL microtubes at 4° C. for two weeks. Gelation was visually observed by inverting the microtube and inspecting the sample for flow from the top of tube.

[3] = CD temperature scans (melting temperature)
Protocol: Circular Dichroism Spectroscopy. Secondary structure was first assessed using the Jasco J-815 CD spectrometer with a PTC-423S single position Peltier temperature control system. Wavelength scans were performed from 190 to 250 nm using 15 μM samples at 1 nm step sizes at 25° C. Temperature scans were performed at α-helical minimum 222 nm from 20 to 85° C. The mean residue ellipticity (MRE) was calculated as described previously. MRE at 222 nm and 208 nm and their ratios were used to assess relative helicity.
Circular Dichroism Spectroscopy. The secondary structure of Q2LTF and QLTF was assessed using a Jasco J-815 circular dischroism (CD) spectrometer with a PTC-423S single position Peltier temperature control system. Wavelength scans were performed from 195 to 250 nm at 1 nm step sizes by diluting the protein into water (at approximately 10 μM) in order to minimize the effects of sodium chloride. […] The mean residue ellipticity (MRE) was calculated as described.

## Q2: coiled-coil protein redesigned from Q for reduced lateral assembly, SEQ ID NO: 11 (MRGSHHHHHHGSIEGRVKELLFLKKTAEQMLEELKETNKALHDVRHLLENQSKL) [Protein Q2]
[1]
  hydrogel fibril diameter (TEM): 28.9±8.6 nm
[2]
  solubility limit: 3.5 mM
  UCST: 22.0 °C
[3]; CCM-bound, pH 4.0
  melting temperature: 59.9±6.3 °C
[3]; native, 50 mM NaH2PO4 pH 4.0
  melting temperature: 43.4±4.0 °C

## Q2LTF: protein-engineered fluorinated coiled-coil fiber, Q2 with trifluoroleucine, SEQ ID NO: 20 (MRGSHHHHHHGSIEGRVKE[LTF][LTF]F[LTF]KKTAEQM[LTF]EE[LTF]KETNKA[LTF]HDVRH[LTF][LTF]ENQSK[LTF]; ends and bridges not checked) [Protein Q2LTF]
[3]; in only water
  melting temperature: 32.6±1.6 °C
[3]; phosphate buffer (50 mM Na2HPO4, pH 8.0)
  melting temperature: 65.0±2.9 °C

## Q3: Q variant with V44I pore mutation, SEQ ID NO: 12 (MRGSHHHHHHGSIEGRVKEILFLKNTAYQMLLELKETNEALYDIRHLLQQQSKL) [Protein Q3]
[1]
  hydrogel fibril diameter (TEM): 32.8±9.8 nm
[2]
  UCST: 13.0 °C
[3]; CCM-bound, pH 4.0
  melting temperature: 61.9±2.0 °C
[3]; native, 50 mM NaH2PO4 pH 4.0
  melting temperature: 61.0±4.9 °C

## Q5: Q hydrogel variant from Rosetta Monte Carlo search, SEQ ID NO: 14 (MRGSHHHHHHGSIEGRVKEITFIKKTIEQIAEEMKEINKAIHDIRHALENISKK) [Protein Q5]
[1]
  hydrogel fibril diameter (TEM): 22.2±8.4 nm
[2]
  solubility limit: 3.5 mM
  UCST: 33.6 °C

## Q: rationally designed pentameric coiled-coil derived from C, SEQ ID NO: 23 (MRGSHHHHHHGSIEGRVKEITFLKNTAPQMLRELQETNAALQDVRELLRQQSKL) [reference compound]
[1]
  hydrogel fibril diameter (TEM): 40.5±25.2 nm
[2]
  solubility limit: 3.5 mM
  UCST: 17.0 °C
[3]; CCM-bound, pH 4.0
  melting temperature: 76.4±4.6 °C
[3]; native, 50 mM NaH2PO4 pH 4.0
  melting temperature: 37.0±7.8 °C
